From paper PMC2116103

Molecular target: IGF1 receptor on embryonic chick spinal cord motoneurons (chick (endogenous in E6 spinal cord motoneurons))

| Substance | neurite growth from E6 chick motoneurons in vitro, half-maximal effect [nM] | neurite growth from E6 chick motoneurons in vitro, half-maximal response [nM] |
| --- | --- | --- |
| Bovine pancreatic insulin (ligand) | 20 |  |
| Highly purified human IGF2 (insulin-like growth factor 2), unlabeled (from UniProt P01344 25-91) (ligand) | 0.2 |  |
| Recombinant human IGF1 (insulin-like growth factor 1), unlabeled (from UniProt P05019 22-118) (ligand) |  | 0.2 |
